In publication PMC9964033 one finds other: Log2(Fold Change (Mut/FL)) data, which are given here for one substance.

One experiment concerns the target Wdr77. Put plainly: interactome comparison (volcano plot). As to conditions: CPEB3 and S240-242A expressed in mouse neuroblastoma N2A cells; read off a plot.
Another experiment has as its target Gls. Put plainly: interactome comparison (volcano plot). The note with it: CPEB3 and S240-242A expressed in mouse neuroblastoma N2A cells; read off a plot.

Take “CPEB3 (full-length), expressed in mouse neuroblastoma N2A cells (from UniProt Q7TN99) S240A; S241A; S242A”: the other: Log2(Fold Change (Mut/FL)) was -4.2 with Wdr77 and 2.8 in the experiment with Gls.
